The record followed here is the supplement of paper PMC9170038.

The test system of this series is K4 kissing-loop RNA reporter. Kind of series: apparent KD of K4 kissing-loop reporter; higher = weaker reporter binding. The settings on record: Eterna round: R107. Here is the method:
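RNA-MaP round R107: designed RNA switches with theophylline, tryptophan, arginine or FMN aptamers are transcribed on-chip within common flanks. They are titrated with a labelled K4 kissing-loop RNA reporter in RNA-MaP buffer (100 mM Tris pH 7.5, 80 mM KCl, 4 mM MgCl2), without ligand or with the indicated ligand. Median apparent KD per design.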

The mark [1] stands for this setting: input ligand: theophylline 20 uM.
[2] abbreviates: input ligand: tryptophan 2.4 mM.
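Further: bound reporter read as fluorescence of individual clusters on recovered sequencing chips by microscopy, with normalized cluster intensities fitted with a binding model.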

Regarding “GGAGAGAACUGAAGGAGCGCCAAGAGAGAAGGAAAUAUAGUGAUGUUAUAUAAGAGAGAGAGGCAGGUAGGUCGCAGAGGGAGGA [#03 K4 Arginine B Exclusion]”, the “apparent KD of K4 kissing-loop reporter” value by setting is: (input ligand: FMN 200 uM) 185 nM; (input ligand: arginine 13.2 mM) 162 nM; (input ligand: none) 127 nM; under setting [1], 175 nM; under setting [2], 112 nM.

“UGUCAUGGAAACAUGAACGUUGAUGUUCGACGAGGACCGGUACGGCCGCCACUCGAGUAAUAGUCAGUGAUGUUGACUUGUCUAA [KL-SSTryp-A form1 sub3]”: the “apparent KD of K4 kissing-loop reporter” value (input ligand: FMN 200 uM) is 74.2 nM; the “apparent KD of K4 kissing-loop reporter” value (input ligand: arginine 13.2 mM) is 107 nM; the “apparent KD of K4 kissing-loop reporter” value (input ligand: none) came out at 91.8 nM; the “apparent KD of K4 kissing-loop reporter” value under setting [1] was found to be 131 nM; the “apparent KD of K4 kissing-loop reporter” value under setting [2] is 76.5 nM.

Take “AUUAGGCGAAGUGAUGUUUCAUAUAAUGGCAAGGAUAUGUCCUUACACAGAAGGUGCUCUUAGUCAGGUUAUAUUAGGACUGCUA [theeternabot_exclusion_KL_FMN_A_42]”: the “apparent KD of K4 kissing-loop reporter” value reads like this: (input ligand: FMN 200 uM) 446 nM; (input ligand: arginine 13.2 mM) 434 nM; (input ligand: none) 460 nM; under setting [1], 474 nM; under setting [2], 340 nM.

In the case of “AACGUAGCUACUGAUACCAGACUUUUUCUUGUAUAUUAGUCAAGUGAUGUUUGACUUUUAGUCCCUUGGCAGCAGUUGCUACGAA [JR_Nu_SSTheophyB_Sub028]”, the “apparent KD of K4 kissing-loop reporter” value by setting is: (input ligand: FMN 200 uM) 89.2 nM; (input ligand: arginine 13.2 mM) 84.3 nM; (input ligand: none) 91.4 nM; under setting [1], 82.6 nM; under setting [2], 98.3 nM.

Consider “UUAUUAAUAACAGAUACCAGUCCAGAAUGAAAACUAUAGUGAUGUUAUAAUAAAGGGAAGGACCCUUGGCAGCUGUAAUAUAUUU [AstrosSSTheB#2]”, for which the “apparent KD of K4 kissing-loop reporter” value runs as follows: (input ligand: FMN 200 uM) 525 nM; (input ligand: arginine 13.2 mM) 427 nM; (input ligand: none) 497 nM; under setting [1], 452 nM; under setting [2], 394 nM.

Regarding “UGAUACCAGACGGCCGCCACUCCUGCAAGUCAAAGACUUGCUAAGGAAAUCGUCCAGUGAUGUUGGAGGACCGGGUCUGGUAUCU [TrypBX 17 #SwitchBubble #Palindromic #StaticStem]”, the “apparent KD of K4 kissing-loop reporter” value by setting is: (input ligand: FMN 200 uM) 931 nM; (input ligand: arginine 13.2 mM) 670 nM; (input ligand: none) 830 nM; under setting [1], 717 nM; under setting [2], 899 nM.

For the sequence “CCAUUCUUUUACGAUACCAGUUUAAUAUAUUUAUUCAUAACCCUUGCCGAGUGAUGUUCGGACCCUUGGCAGCGUUUGCGAGAGG [lliltkmullin]”, the “apparent KD of K4 kissing-loop reporter” value runs as follows: (input ligand: FMN 200 uM) 303 nM; (input ligand: arginine 13.2 mM) 308 nM; (input ligand: none) 392 nM; under setting [1], 404 nM; under setting [2], 239 nM.

On to “GGGUCAGUCUGAAGGAGCGGCCAGACAGAGCAGUGAUGUUGCUCCUAAUUUAAAAGUGUCGGCCAGGUAGGUCGCAGAUUGGCUC [Dienralais]”, for which the “apparent KD of K4 kissing-loop reporter” value is, setting by setting: (input ligand: FMN 200 uM) 154 nM; (input ligand: arginine 13.2 mM) 127 nM; (input ligand: none) 161 nM; under setting [1], 152 nM; under setting [2], 165 nM.

On to “UUUCGGCCCAGUGAUGUUGGGUGGAGGCGGCGAGGACCGGUACGGCCGCCACUCGGCGCACUGGCGGAGUGAUGUUUCGUGUAUA [Same State Tryptophan A GF 14]”, for which the “apparent KD of K4 kissing-loop reporter” value is, setting by setting: (input ligand: FMN 200 uM) 697 nM; (input ligand: arginine 13.2 mM) 592 nM; (input ligand: none) 752 nM; under setting [1], 708 nM; under setting [2], 834 nM.

As for “GAGUGGCAGACGGCCGCCACUCUUAGCAGCCAGCGGAGUGAUGUUCCGCCCGAGUGAUGUUCGGAGAGGACCGGGUUUGUUGUAA [Exclusion Tryptophan B GF 29]”, the “apparent KD of K4 kissing-loop reporter” value (input ligand: FMN 200 uM) stood at 119 nM; the “apparent KD of K4 kissing-loop reporter” value (input ligand: arginine 13.2 mM) is 146 nM; the “apparent KD of K4 kissing-loop reporter” value (input ligand: none) was 146 nM; the “apparent KD of K4 kissing-loop reporter” value under setting [1] is 149 nM; the “apparent KD of K4 kissing-loop reporter” value under setting [2] turned out to be 125 nM.

Take “GGUCCGGGCUCGGCCGCCACUCCCUCCUGCCGGAAGGUGGGAUACCGAGUGAUGUUCGGUUGGAGGAGGACCGGGAGCCCGGACC [#2 Exclusion - Tryptophan B Attempt #13 (HarryS)]”: the “apparent KD of K4 kissing-loop reporter” value (input ligand: FMN 200 uM) worked out at 132 nM; the “apparent KD of K4 kissing-loop reporter” value (input ligand: arginine 13.2 mM) was 106 nM; the “apparent KD of K4 kissing-loop reporter” value (input ligand: none) is 123 nM; the “apparent KD of K4 kissing-loop reporter” value under setting [1] amounted to 161 nM; the “apparent KD of K4 kissing-loop reporter” value under setting [2] stood at 129 nM.
